From patent US12208130B2, “Treatment of women affected with polycystic ovary syndrome” (INSTITUT NATIONAL DE LA SANTE ET DE LA RECHERCHE MEDICALE …, priority 2017, dated 2025)
Where a SMILES comes first, the peptide text is derived from it. [ ]: non-standard residue; d: D form. dPhe(4-Cl) = N[C@H](Cc1ccc(Cl)cc1)C(=O)O; d2Nal = N[C@H](Cc1ccc2ccccc2c1)C(=O)O; dCit = NC(=O)NCCC[C@@H](N)C(=O)O; d3Pal = N[C@H](Cc1cccnc1)C(=O)O

B1: proAMH: AMH proprotein (Origene Technologies, Cat # TP308397), injected prenatally 0.12 mg/Kg/d (protein, UniProt P03971 25-560, looked up)
pro-form: LRAEEPAVGTSGLIFREDLDWPPGSPQEPLCLVALGGDSNGSSSPLRVVGALSAYEQAFLGAVQRARWGPRDLATFGVCNTGDRQAALPSLRRLGAWLRDPGGQRLVVLHLEEVTWEPTPSLRFQEPPPGGAGPPELALLVLYPGPGPEVTVTRAGLPGAQSLCPSRDTRYLVLAVDRPAGAWRGSGLALTLQPRGEDSRLSTARLQALLFGDDHRCFTRMTPALLLLPRSEPAPLPAHGQLDTVPFPPPRPSAELEESPPSADPFLETLTRLVRALRVPPARASAPRLALDPDALAGFPQGLVNLSDPAALERLLDGEEPLLLLLRPTAATTGDPAPLHDPTSAPWATALARRVAAELQAAAAELRSLPGLPPATAPLLARLLALCPGGPGGLGDPLRALLLLKALQGLRVEWRGRDPRGPGRAQRSAGATAADGPCALRELSVDLRAERSVLIPETYQANNCQGVCGWPQSDRNPRYGNHVVLLLKMQVRGAALARPPCCVPTAYAGKLLISLSEERISAHHVPNMVATECGCR
modifications: pro-form
notes: AMH proprotein (Origene Technologies, Cat # TP308397), injected prenatally 0.12 mg/Kg/d

System: C57BL6/J (B6) dams and their female offspring
Experiment: Prenatal treatment of pregnant dams: phenotype, estrous cycle, ovarian histology and fertility of female offspring
Type: in vivo, mouse
Experimental: FIGS. 2A-2E-3. Prenatal AMH treatment disrupts estrous cyclicity, ovarian morphology and fertility in adult offspring. (FIG. 2A) Schematic of experimental design whereby pregnant dams were subjected to different treatments by intraperitoneal (i.p.) injections during the late gestational period (embryonic days (E) 16.5-E18.5). Pregnant dams were treated with i.p. injections of four different treatments, which are designated as the following: Control, PBS, 0.01M, pH 7.4 (n=14); Prenatal anti-Müillerian hormone-treated (PAMH), PBS containing human recombinant AMH (n=19); Prenatal AMH+Cetrorelix (PAMH+GnRH antag), PBS containing both human recombinant AMH and cetrorelix acetate (n=10); Cetrorelix-treated (GnRH antag), PBS containing cetrorelix acetate (n=4). (FIG. 2B) Quantitative analysis of ovarian cyclicity in adult (P60-P90) offspring mice (control, n=14; PAMH, n=19; PAMH+GnRH antag, n=10; GnRH antag, n=4). Vaginal cytology was assessed for 16 days. […] Bars from left to right in each group: Control, PAMH, PAMH+GnRH antag, GnRH antag. (FIGS. 2C-1, 2C-2, 2C-3) Representation of estrous cyclicity in one female mouse of each of the four treatments during 16 consecutive days (4-cycles). (FIGS. 2D-1, 2D-2, 2D-3) Quantitative analysis of corpora lutea, late antral follicles and atretic follicles in the ovaries of Control (n=7, age: P90) and PAMH mice (n=8, age: P90). Data are represented as mean±s.e.m (two-tailed Student's t-test; corpora lutea, t(13)=4.879, **P<0.001; late antral follicles, t(13)=4.637, **P<0.001; atretic follicles, t(13)=0.226, P=0.82). Data were combined from two independent experiments. In FIGS. 2D-1, 2D-2 and 2D-3: left bar: Control; right bar: PAMH.). (FIGS. 2E-1, 2E-2, 2E-3) Fertility tests of the adult offspring mice (P90). Bars from left to right in each FIGS. 2E-1, 2E-2 and 2E-3: Control, PAMH, PAMH+GnRH antag, GnRH antag Matings were performed for 90 days. Control females were paired with control males (n=7), PAMH females were paired with PAMH males (n=7), PAMH+GnRH antag females were paired with PAMH+GnRH antag males (n=6), and GnRH antag females were paired with GnRH antag males (n=4). […] Data are represented as mean±s.e.m. One-way ANOVA and Tukey's multiple comparison post hoc test: time to first litter, F(3,20)=14.73, ***P<0.0001; fertility index, F(3,20)=7.069, *P<0.05, **P<0.005; number of pups/litter, F(3,20)=30.71, ***P<0.0001.
FIGS. 8A-8D. Prenatal AMH treatment disrupts puberty onset and estrous cyclicity cyclicity but not body mass of the offspring. (FIGS. 8A, 8B, 8C, 8D) Parameters of pubertal onset and estrous cyclicity in female control (n=14), PAMH (n=17-19), PAMH+GnRH antag (n=10), and GnRH antag (n=4) animals. (FIG. 8A) Age of vaginal opening (VO) and (FIG. 8B) Age of first estrus were compared using a one-way ANOVA and Tukey's multiple comparison post hoc analyses, respectively: F (3, 43)=48.37, *** P<0.0001; F (3, 41)=112.6, *** P<0.0001. Bars from left to right in each FIGS. 8A, 8B: Control, PAMH, PAMH+GnRH antag, GnRH antag (FIG. 8C) Percentage (%) of completed estrous cycles over 16 days (4 cycles) was analyzed using a non-parametric Kruskal-Wallis test followed by a Dunn's multiple comparison post-hoc analysis: Kruskal-Wallis statistic=35.55, *P<0.05, **P<0.005, ***P<0.0001. Bars from left to right in each FIG. 8C: Control, PAMH, PAMH+GnRH antag, GnRH antag (FIG. 8D) Body mass (gr) was measured in female offspring at each post-natal age (P) until P60 and compared using a one-way ANOVA and Tukey's multiple comparison post hoc analyses for each age and treatment: P30, F (3, 43)=1.338, P=0.2747; P35, F (3, 43)=0.4268, P=0.7348; P40, F (3, 43)=0.4171, P=0.7416; P50, F (3, 27)=2.158, P=0.1162; P60, F (3, 27)=5.45, P=0.0046; * P<0.05, **, P<0.005. Asterisks represent significant differences (mean±s.e.m): *P<0.05, **P<0.005, ***, P<0.0001. Bars from left to right in FIG. 8D: Control, PAMH, PAMH+GnRH antag, GnRH antag. […]

[1] = dams i.p. AMH 0.12 mg/Kg/d + cetrorelix acetate 0.5 mg/Kg E16.5-E18.5, female offspring
[2] = dams i.p. 0.12 mg/Kg/d E16.5-E18.5, female offspring vs control

Row | Molecule | estrous cyclicity and fertility (GnRH antagonist alone, dams i.p. 0.5 mg/Kg/d E16.5-E18.5, offspring) | longer ano-genital distance phenotype of PAMH offspring [1] | oligo-anovulation and subfertility (ovulatory and fertility defects) of PAMH offspring [1] | oligo-anovulation and subfertility (ovulatory and fertility defects) of PAMH offspring (dams i.p. AMH 0.12 mg/Kg/d + cetrorelix acetate 0.5 mg/Kg E16.5-E18.5, female offspring, listed as GnRH antagonist) | estrous cyclicity (dams i.p. 0.12 mg/Kg/d E16.5-E18.5, adult female offspring vs control) | ano-genital distance (dams i.p. 0.12 mg/Kg/d E16.5-E18.5, female offspring P30-P60 vs control) | body weight of offspring [2] | puberty onset (first estrus) [2] | vaginal opening [2]
1 | CC(=O)N[C@H](Cc1ccc2ccccc2c1)C(=O)N[C@H](Cc1ccc(Cl)cc1)C(=O)N[C@H](Cc1cccnc1)C(=O)N[C@@H](CO)C(=O)N[C@@H](Cc1ccc(O)cc1)C(=O)N[C@H](CCCNC(N)=O)C(=O)N[C@@H](CC(C)C)C(=O)N[C@@H](CCCNC(=N)N)C(=O)N1CCC[C@H]1C(=O)N[C@H](C)C(N)=O [Cetrorelix acetate, Ac-D-2Nal-D-Phe(4-Cl)-D-3Pal-Ser-Tyr-D-Cit-Leu-Arg-Pro-D-Ala-NH2] (Ac-[d2Nal][dPhe(4-Cl)][d3Pal]SY[dCit]LRP[dA]-NH2) | no effect | completely rescued | totally prevented | prevented the appearance of the ovulatory and fertility defects |  |  |  |  | 
2 | B1 |  |  |  |  | disrupted estrous cyclicity | significantly longer ano-genital distance | no difference in body weight | delayed puberty onset | delayed vaginal opening
